These results are taken from publication PMC4148199, “Multiple Regulation of Rad51-Mediated Homologous Recombination by Fission Yeast Fbh1” (PLoS Genetics, 2014).

In series [1] the target is T1, complex of 3FLAG6His-Fbh1 and 6His-Skp1 (S. pombe, UniProt Q9USU3 1-878; Q9Y709 1-161).
T1 construct: Fbh1 (F-box DNA helicase-1), Schizosaccharomyces pombe; Skp1, Schizosaccharomyces pombe; also called FLAG-His-tagged Fbh1-Skp1; Fbh1-Skp1 complex; source: insect cells, baculovirus co-infection, purified as a complex
T1 sequence (looked up) 1: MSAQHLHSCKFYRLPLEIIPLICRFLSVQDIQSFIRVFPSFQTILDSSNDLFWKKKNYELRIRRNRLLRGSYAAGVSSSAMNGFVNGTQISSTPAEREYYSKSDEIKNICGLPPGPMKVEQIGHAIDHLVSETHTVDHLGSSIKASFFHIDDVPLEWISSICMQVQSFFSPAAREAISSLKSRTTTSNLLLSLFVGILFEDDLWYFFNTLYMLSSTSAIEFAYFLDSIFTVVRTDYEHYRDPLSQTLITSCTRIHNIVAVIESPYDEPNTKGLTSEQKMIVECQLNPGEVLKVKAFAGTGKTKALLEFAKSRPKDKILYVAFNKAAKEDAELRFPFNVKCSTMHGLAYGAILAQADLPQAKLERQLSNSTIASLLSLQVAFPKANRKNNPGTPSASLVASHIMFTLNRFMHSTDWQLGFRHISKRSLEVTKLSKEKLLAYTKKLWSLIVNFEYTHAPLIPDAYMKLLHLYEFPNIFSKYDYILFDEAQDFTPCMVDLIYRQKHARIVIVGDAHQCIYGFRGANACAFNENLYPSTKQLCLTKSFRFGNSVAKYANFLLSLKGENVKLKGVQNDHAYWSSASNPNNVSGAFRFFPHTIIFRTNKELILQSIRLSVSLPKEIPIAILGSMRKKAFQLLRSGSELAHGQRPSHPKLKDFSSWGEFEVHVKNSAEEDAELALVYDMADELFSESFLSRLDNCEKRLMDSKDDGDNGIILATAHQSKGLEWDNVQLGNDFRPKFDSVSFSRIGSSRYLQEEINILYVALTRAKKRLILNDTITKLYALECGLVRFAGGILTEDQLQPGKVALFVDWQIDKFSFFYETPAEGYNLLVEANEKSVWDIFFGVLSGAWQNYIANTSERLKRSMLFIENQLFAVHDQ
T1 sequence (looked up) 2: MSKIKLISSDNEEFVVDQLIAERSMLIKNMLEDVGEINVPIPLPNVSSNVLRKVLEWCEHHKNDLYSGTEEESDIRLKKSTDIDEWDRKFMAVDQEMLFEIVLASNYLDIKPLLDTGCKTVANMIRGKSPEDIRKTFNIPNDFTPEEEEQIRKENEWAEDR
In words: co-IP; in vitro; 0.5 µg of each purified protein mixed in 10 µl 25 mM Tris-OAc pH 7.5, 100 mM KCl, 0.5% NP40, 3 mM Mg-acetate, 10 min room temperature then 20 min 4°C; M2 anti-FLAG antibody and Dynabeads Protein G; western blot with anti-Rad51, anti-Sfr1 or anti-M2. As to conditions: both partners purified.

For the next series, the target named is T2, Fbh1;Skp1 (Schizosaccharomyces …, UniProt Q9USU3;Q9Y709 1-878;1-161, |).
T2 sequence 1: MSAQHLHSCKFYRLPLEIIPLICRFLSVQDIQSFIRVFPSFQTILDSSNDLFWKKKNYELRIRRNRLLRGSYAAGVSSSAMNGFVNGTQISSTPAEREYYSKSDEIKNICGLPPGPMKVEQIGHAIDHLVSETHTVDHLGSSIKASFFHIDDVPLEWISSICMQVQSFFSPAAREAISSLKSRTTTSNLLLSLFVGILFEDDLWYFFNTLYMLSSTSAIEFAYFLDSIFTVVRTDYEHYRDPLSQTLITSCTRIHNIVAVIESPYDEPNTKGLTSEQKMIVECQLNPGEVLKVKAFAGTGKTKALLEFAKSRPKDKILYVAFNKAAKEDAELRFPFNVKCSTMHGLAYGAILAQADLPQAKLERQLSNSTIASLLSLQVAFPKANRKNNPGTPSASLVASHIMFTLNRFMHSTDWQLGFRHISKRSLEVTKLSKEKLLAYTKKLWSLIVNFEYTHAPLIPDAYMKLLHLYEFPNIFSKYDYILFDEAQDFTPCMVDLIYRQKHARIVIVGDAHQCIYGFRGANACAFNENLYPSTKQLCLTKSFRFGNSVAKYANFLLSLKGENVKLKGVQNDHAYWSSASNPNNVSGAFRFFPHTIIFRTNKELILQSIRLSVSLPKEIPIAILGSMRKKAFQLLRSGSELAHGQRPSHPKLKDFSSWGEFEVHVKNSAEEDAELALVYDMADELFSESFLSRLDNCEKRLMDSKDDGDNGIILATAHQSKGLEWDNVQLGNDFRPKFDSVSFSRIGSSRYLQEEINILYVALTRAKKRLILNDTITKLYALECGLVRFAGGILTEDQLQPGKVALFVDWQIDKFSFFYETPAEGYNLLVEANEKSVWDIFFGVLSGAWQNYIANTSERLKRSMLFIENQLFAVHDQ
T2 sequence 2: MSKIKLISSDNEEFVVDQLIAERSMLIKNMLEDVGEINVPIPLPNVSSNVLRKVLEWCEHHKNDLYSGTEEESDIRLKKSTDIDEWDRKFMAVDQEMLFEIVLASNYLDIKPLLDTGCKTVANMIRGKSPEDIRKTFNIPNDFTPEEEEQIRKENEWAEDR
In words: EMSA; 3 mM Mg-acetate; preferred substrate; EMSA: 25 mM Tris-acetate pH 8.0, 1 mM DTT, 3 mM Mg-acetate, 5% glycerol, 100 mM KCl, 10 nM DNA, 30 C 10 min; ssDNA beads: 30 mM Tris-HCl pH 7.5, 1 mM DTT, 100 mM NaCl, 3.5 mM MgCl2, 5% glycerol, 0.25% Tween 20, ATP regeneration system, 37 C. As to conditions: protein: recombinant;recombinant; tags: 6His;6His; copies: 1;1; label: 32P.

B1: Rad51 (natural protein, S. pombe, UniProt P36601 1-365, looked up)
chain: MADTEVEMQVSAADTNNNENGQAQSNYEYDVNVQDEEDEAAAGPMPLQMLEGNGITASDIKKIHEAGYYTVESIAYTPKRQLLLIKGISEAKADKLLGEASKLVPMGFTTATEYHIRRSELITITTGSKQLDTLLQGGVETGSITELFGEFRTGKSQICHTLAVTCQLPIDMGGGEGKCLYIDTEGTFRPVRLLAVADRYGLNGEEVLDNVAYARAYNADHQLELLQQAANMMSESRFSLLVVDSCTALYRTDFSGRGELSARQMHLARFMRTLQRLADEFGIAVVITNQVVAQVDGISFNPDPKKPIGGNILAHSSTTRLSLRKGRGEQRICKIYDSPCLPESEAIFAINSDGVGDPKEIIAPV
notes: Rad51 recombinase, Schizosaccharomyces pombe; also called SpRad51
Turning to B1, the binding result in series [1] is “binds”.

B2: F3-d47 (47-mer ssDNA) (ssDNA)
DNA: AGCTATGACCATGATTACGAATTGCTTGGAATCCTGACGAACTGTAG
Take B2: in the series with Fbh1;Skp1, the binding result is on record as “binds”.
